Columns and labels:
human MYCT1 (hMYCT1) [1] = molecular target: T1, human MYCT1 (hMYCT1) (human, UniProt Q8N699 1-235, limits assumed); assay: SPR koff ranking, single curve, antibody captured via anti-human Fc IgG, 10 nM MYCT1 as analyte, 1:1 binding model
T1 construct: also called MYC Target 1
T1 sequence: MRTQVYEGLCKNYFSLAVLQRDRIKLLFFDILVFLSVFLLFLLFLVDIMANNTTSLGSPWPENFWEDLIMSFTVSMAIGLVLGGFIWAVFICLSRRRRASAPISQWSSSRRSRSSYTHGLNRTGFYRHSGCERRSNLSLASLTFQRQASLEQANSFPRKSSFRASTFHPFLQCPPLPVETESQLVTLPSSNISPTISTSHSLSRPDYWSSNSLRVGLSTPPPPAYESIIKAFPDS

human MYCT1 (hMYCT1) [2] = molecular target: T1, human MYCT1 (hMYCT1); assay: SPR full kinetics, multicycle, antibody captured via anti-human Fc IgG, MYCT1 0.625-10 nM as analyte, 1:1 binding model
human MYCT1 (hMYCT1) [3] = molecular target: T1, human MYCT1 (hMYCT1); assay: SPR koff ranking, 1:1 binding model

B1: 11B6 parent antibody (antibody, V domains shown)
VH: EVQLVESGGGLVKPGGSLKLSCAASGFTFSDFGIHWVRQAPEKGLEWVGYISSGSRTIHYADTVKGRFTISRDNAKNTLFLQMTNLRSEDTAIYYCARRDWDPEWLAYWGQGTLVTISA
VL: DVVMTQAPLSLPVSLGDQASISCRSSLSLVHSNGHTYLHWYLQKPGQSPKLLIYKVSNRFSGVPDRFSGSGSGTDFTLKIRRVEAEDLGVYFCSQSTHVPFTFGSGTKLEIK
notes: Mouse parental variable domains; also called parent antibody (11B6); 11B6 clone
koff (human MYCT1 (hMYCT1) [1]): 0.00496 s⁻¹ | Kd (human MYCT1 (hMYCT1) [2]): 1.2 nM | koff (human MYCT1 (hMYCT1) [2]): 0.00411 s⁻¹ | kon (human MYCT1 (hMYCT1) [2]): 3.44e+06 M⁻¹ s⁻¹ | koff (human MYCT1 (hMYCT1) [3]): 0.00456 s⁻¹

From patent EP4737482A1 (Atheon Bio, Inc., dated 2026)
